# Reference: the supplement of paper PMC9732359
# ± gives the uncertainty stated by the source.
# Assay: protein stability index of a GFP-peptide fusion (yeast GPS) (PSI 1-4); higher = more stable; sorted into four equal gates, so the index is relative within each strain
# Method in brief: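 Plasmids in a pooled yeast library fused tiled 17-residue yeast protein peptides downstream of GFP and also expressed Cherry. Mid-log cultures grown without leucine were sorted into four equal gates by GFP/Cherry fluorescence ratio. Each gate's plasmids were PCR-amplified and Illumina-sequenced, and reads were matched to strains by barcodes. The protein stability index is derived by multiplying each gate's read frequency by its gate number and summing the results.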
sequence,measurement,setting,value
YHGLYTNYEMSYWQKSY [LIN1],protein stability index,doa10∆,1.75 ± 0.046
same,protein stability index,pdr5∆,2.08 ± 0.038
same,protein stability index,san1∆,2.11 ± 0.055
same,protein stability index,ubr1∆,2.17 ± 0.041
ALSQSSLLKTKLKQQSS [RRI1],protein stability index,doa10∆,2.13 ± 0.037
same,protein stability index,pdr5∆,2.51 ± 0.035
same,protein stability index,san1∆,2.22 ± 0.048
same,protein stability index,ubr1∆,2.26 ± 0.035
SHTGLVRKYDLNICRQC [RPS29B],protein stability index,doa10∆,2.18 ± 0.052
same,protein stability index,pdr5∆,2.51 ± 0.068
same,protein stability index,san1∆,1.94 ± 0.092
same,protein stability index,ubr1∆,2.09 ± 0.088
NTSAKNKNGENKKIGKR [SIR4],protein stability index,doa10∆,3.02 ± 0.27
same,protein stability index,pdr5∆,3.19 ± 0.14
same,protein stability index,san1∆,3.03 ± 0.21
MSLTTAAPLLALLRENQ [RPN2],protein stability index,doa10∆,2.6 ± 0.19
same,protein stability index,pdr5∆,3.31 ± 0.25
same,protein stability index,san1∆,2.8 ± 0.12
same,protein stability index,ubr1∆,3.05 ± 0.08
FNVDDVLKFTFTGEKPI [MED8],protein stability index,doa10∆,3.16 ± 0.094
same,protein stability index,pdr5∆,3.02 ± 0.097
same,protein stability index,san1∆,3.29 ± 0.048
same,protein stability index,ubr1∆,2.98 ± 0.068
DTSYKIDGKTVSYKDYS [SMC1],protein stability index,doa10∆,2.6 ± 0.049
same,protein stability index,pdr5∆,2.79 ± 0.042
same,protein stability index,san1∆,2.58 ± 0.046
same,protein stability index,ubr1∆,2.95 ± 0.04
YIDIRTNNVLRKLGLLG [MTW1],protein stability index,doa10∆,1.49 ± 0.053
same,protein stability index,pdr5∆,1.76 ± 0.069
same,protein stability index,san1∆,1.64 ± 0.15
same,protein stability index,ubr1∆,1.5 ± 0.056
VHVQLLINLKISPLMKS [SRB8],protein stability index,doa10∆,1.44 ± 0.058
same,protein stability index,pdr5∆,1.59 ± 0.048
same,protein stability index,san1∆,1.55 ± 0.091
same,protein stability index,ubr1∆,1.44 ± 0.05
QHYLDTATAPRLFDKLK [QCR6],protein stability index,doa10∆,2.96 ± 0.055
same,protein stability index,pdr5∆,3.04 ± 0.045
same,protein stability index,san1∆,2.84 ± 0.061
same,protein stability index,ubr1∆,2.76 ± 0.091
KFFMKHGLILELQKIWQ [SRB5],protein stability index,doa10∆,2.94 ± 0.096
same,protein stability index,pdr5∆,3.02 ± 0.089
same,protein stability index,san1∆,3.32 ± 0.069
same,protein stability index,ubr1∆,3.18 ± 0.037
EDDSSNSCFSDGSQQNL [REC8],protein stability index,doa10∆,3.7 ± 0.22
same,protein stability index,san1∆,3.65 ± 0.12
same,protein stability index,ubr1∆,3.32 ± 0.1
DTFLPPPPPPPSNFEIN [PRP8],protein stability index,doa10∆,2.6 ± 0.039
same,protein stability index,pdr5∆,2.57 ± 0.039
same,protein stability index,san1∆,2.34 ± 0.04
same,protein stability index,ubr1∆,2.33 ± 0.032
IAVLIELLEERFQDSNP [YCS4],protein stability index,doa10∆,1.62 ± 0.032
same,protein stability index,pdr5∆,2.06 ± 0.058
same,protein stability index,san1∆,2.66 ± 0.063
same,protein stability index,ubr1∆,2.82 ± 0.069
PEKKEMIQEVIVEEDLE [FAS2],protein stability index,doa10∆,3.14 ± 0.077
same,protein stability index,pdr5∆,3.31 ± 0.089
same,protein stability index,san1∆,3.35 ± 0.045
same,protein stability index,ubr1∆,3.36 ± 0.062
CGGINDSIPYPQIVKLF [ECM29],protein stability index,doa10∆,1.56 ± 0.07
same,protein stability index,pdr5∆,1.31 ± 0.06
same,protein stability index,san1∆,1.96 ± 0.086
same,protein stability index,ubr1∆,1.71 ± 0.049
YGEYPPTKLLVSEVAKI [PRE8],protein stability index,doa10∆,2.53 ± 0.084
same,protein stability index,pdr5∆,2.81 ± 0.13
same,protein stability index,san1∆,2.67 ± 0.12
same,protein stability index,ubr1∆,2.93 ± 0.078
EDEDEDLFGDSNKSNST [SSN2],protein stability index,doa10∆,2.69 ± 0.05
same,protein stability index,pdr5∆,2.82 ± 0.061
same,protein stability index,san1∆,2.86 ± 0.079
same,protein stability index,ubr1∆,2.18 ± 0.032
TELKKITDKTIKAFMDS [IRR1],protein stability index,doa10∆,2.99 ± 0.065
same,protein stability index,pdr5∆,2.42 ± 0.054
same,protein stability index,san1∆,2.46 ± 0.072
same,protein stability index,ubr1∆,2.52 ± 0.079
KRRKTHIHKHVKDEAFD [RET1],protein stability index,doa10∆,2.87 ± 0.11
same,protein stability index,pdr5∆,3.23 ± 0.12
same,protein stability index,san1∆,2.92 ± 0.095
same,protein stability index,ubr1∆,3.1 ± 0.1
VFQLPTRLPAFERPAVK [RPC53],protein stability index,doa10∆,3.01 ± 0.093
same,protein stability index,pdr5∆,2.89 ± 0.072
same,protein stability index,san1∆,2.81 ± 0.1
same,protein stability index,ubr1∆,3.01 ± 0.079
SKAFKESSDFGAIILTK [SRP54],protein stability index,doa10∆,2.12 ± 0.073
same,protein stability index,pdr5∆,1.57 ± 0.056
same,protein stability index,san1∆,1.56 ± 0.17
same,protein stability index,ubr1∆,1.67 ± 0.06
LELPLCPYCYKKRREYF [SIR2],protein stability index,doa10∆,2.46 ± 0.053
same,protein stability index,pdr5∆,2.06 ± 0.057
same,protein stability index,san1∆,1.95 ± 0.07
same,protein stability index,ubr1∆,1.98 ± 0.077
LLWTPKKLEITSDGALS [RPR2],protein stability index,doa10∆,2.09 ± 0.047
same,protein stability index,pdr5∆,2.42 ± 0.048
same,protein stability index,san1∆,2.61 ± 0.044
same,protein stability index,ubr1∆,2.4 ± 0.034
VRILRLITTNSVEEVIL [SNF2],protein stability index,doa10∆,2.3 ± 0.093
same,protein stability index,pdr5∆,2.12 ± 0.06
same,protein stability index,san1∆,2.31 ± 0.081
same,protein stability index,ubr1∆,1.68 ± 0.033
PTGKEEGDGAKAAISFG [YJL041W/NSP1],protein stability index,doa10∆,3.37 ± 0.11
same,protein stability index,pdr5∆,3.04 ± 0.1
same,protein stability index,san1∆,3.35 ± 0.1
same,protein stability index,ubr1∆,3.38 ± 0.069
KIALGSPIVNVLEDVYR [RRI2],protein stability index,doa10∆,2.17 ± 0.15
same,protein stability index,pdr5∆,2.96 ± 0.15
same,protein stability index,san1∆,2.31 ± 0.15
same,protein stability index,ubr1∆,2.77 ± 0.098
FLNDVIPTTKNLRLLVE [DLS1],protein stability index,doa10∆,3.28 ± 0.091
same,protein stability index,pdr5∆,3.16 ± 0.11
same,protein stability index,san1∆,2.88 ± 0.081
same,protein stability index,ubr1∆,3.47 ± 0.087
VLLDARDIEKITSLYAL [CDC53],protein stability index,doa10∆,1.69 ± 0.038
same,protein stability index,pdr5∆,1.99 ± 0.034
same,protein stability index,san1∆,1.72 ± 0.06
same,protein stability index,ubr1∆,2.02 ± 0.029
APSVPEFIYLTKVLQFA [SNF2],protein stability index,doa10∆,2.82 ± 0.1
same,protein stability index,pdr5∆,2.5 ± 0.087
same,protein stability index,san1∆,1.78 ± 0.12
same,protein stability index,ubr1∆,2.91 ± 0.087
EEYDDDDDNSNVDYYNV [SNF2],protein stability index,doa10∆,2.89 ± 0.067
same,protein stability index,pdr5∆,2.93 ± 0.063
same,protein stability index,san1∆,2.93 ± 0.042
same,protein stability index,ubr1∆,3.06 ± 0.067
GQVAIKTLVYLEKCEAE [YCS4],protein stability index,ubr1∆,2.92 ± 0.24
CIQVNCLNCEKSKLFEW [SNM1],protein stability index,doa10∆,3.11 ± 0.065
same,protein stability index,pdr5∆,3.29 ± 0.058
same,protein stability index,san1∆,3.13 ± 0.05
same,protein stability index,ubr1∆,3.16 ± 0.052
YTEFIDSFIEKIIPKDI [ITC1],protein stability index,doa10∆,2.79 ± 0.12
same,protein stability index,pdr5∆,2.11 ± 0.1
same,protein stability index,san1∆,1.76 ± 0.12
same,protein stability index,ubr1∆,1.81 ± 0.053
VVTMSVKSVNDPSQNRL [RPC37],protein stability index,doa10∆,2.27 ± 0.19
same,protein stability index,pdr5∆,2.56 ± 0.27
same,protein stability index,san1∆,2.42 ± 0.17
AFEELEGSWDRGIPRIS [PRP8],protein stability index,doa10∆,2.88 ± 0.18
same,protein stability index,pdr5∆,3.36 ± 0.19
same,protein stability index,san1∆,3.36 ± 0.22
same,protein stability index,ubr1∆,3.3 ± 0.24
WLYVYETPNQDATYDSA [RPN6],protein stability index,doa10∆,2.62 ± 0.075
same,protein stability index,pdr5∆,2.75 ± 0.067
same,protein stability index,san1∆,2.67 ± 0.068
same,protein stability index,ubr1∆,2.49 ± 0.055
LIQSYSLLDKPDEAIEK [FAS1],protein stability index,doa10∆,2.82 ± 0.087
same,protein stability index,pdr5∆,2.75 ± 0.084
same,protein stability index,san1∆,2.14 ± 0.087
same,protein stability index,ubr1∆,2.79 ± 0.082
AQAQAQAQAQVYAQQST [PGD1],protein stability index,doa10∆,2.87 ± 0.053
same,protein stability index,pdr5∆,3.05 ± 0.052
same,protein stability index,san1∆,2.97 ± 0.045
same,protein stability index,ubr1∆,3.01 ± 0.044
LLLRCDDRVDKKFVSQI [POP3],protein stability index,doa10∆,3.27 ± 0.11
same,protein stability index,pdr5∆,3.34 ± 0.066
same,protein stability index,san1∆,3.03 ± 0.054
same,protein stability index,ubr1∆,3.22 ± 0.042
YITLKATFLKDDLPYYV [QCR2],protein stability index,doa10∆,2.42 ± 0.047
same,protein stability index,pdr5∆,2.17 ± 0.049
same,protein stability index,san1∆,2.51 ± 0.054
same,protein stability index,ubr1∆,2.44 ± 0.039
KLLFQELLSMNIAPRLR [RET1],protein stability index,doa10∆,1.35 ± 0.052
same,protein stability index,pdr5∆,1.31 ± 0.049
same,protein stability index,san1∆,1.35 ± 0.089
same,protein stability index,ubr1∆,1.24 ± 0.042
INVLTDQNPIQVVVDAI [RPS5],protein stability index,doa10∆,2.19 ± 0.044
same,protein stability index,pdr5∆,2.59 ± 0.038
same,protein stability index,san1∆,2.44 ± 0.055
same,protein stability index,ubr1∆,2.05 ± 0.031
